Experimental data as given in publication PMC10185811.
Positions count from the first letter of the chain named. Each block holds one binder with its values, some of them ahead of it.

Legend:
GST-RAD23, P54727 = target: T1, GST-RAD23, P54727; test: Octet (BLI); details: chain shown with the change; GST-RAD23 on the sensor; GST control curve in the same panel reaches est. 0.13 nm; read off a plot
T1 chain: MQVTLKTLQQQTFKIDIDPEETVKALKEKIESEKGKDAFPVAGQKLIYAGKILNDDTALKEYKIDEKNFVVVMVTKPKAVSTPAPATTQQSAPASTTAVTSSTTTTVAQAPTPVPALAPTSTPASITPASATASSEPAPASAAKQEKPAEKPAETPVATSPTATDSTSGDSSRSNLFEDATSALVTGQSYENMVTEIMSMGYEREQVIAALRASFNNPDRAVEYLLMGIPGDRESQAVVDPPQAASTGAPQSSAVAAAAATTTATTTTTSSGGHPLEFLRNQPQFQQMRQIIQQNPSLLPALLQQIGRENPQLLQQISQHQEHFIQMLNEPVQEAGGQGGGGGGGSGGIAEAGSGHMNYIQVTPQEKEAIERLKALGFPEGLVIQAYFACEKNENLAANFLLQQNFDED

GST-NUB1L, Q9Y5A7-1 = target: T2, GST-NUB1L, Q9Y5A7-1; test: Octet (BLI); details: chain shown with the change; GST-NUB1L on the sensor; His6-RPN1 variant in solution; parent: est. 0.58; read off a plot
T2 chain: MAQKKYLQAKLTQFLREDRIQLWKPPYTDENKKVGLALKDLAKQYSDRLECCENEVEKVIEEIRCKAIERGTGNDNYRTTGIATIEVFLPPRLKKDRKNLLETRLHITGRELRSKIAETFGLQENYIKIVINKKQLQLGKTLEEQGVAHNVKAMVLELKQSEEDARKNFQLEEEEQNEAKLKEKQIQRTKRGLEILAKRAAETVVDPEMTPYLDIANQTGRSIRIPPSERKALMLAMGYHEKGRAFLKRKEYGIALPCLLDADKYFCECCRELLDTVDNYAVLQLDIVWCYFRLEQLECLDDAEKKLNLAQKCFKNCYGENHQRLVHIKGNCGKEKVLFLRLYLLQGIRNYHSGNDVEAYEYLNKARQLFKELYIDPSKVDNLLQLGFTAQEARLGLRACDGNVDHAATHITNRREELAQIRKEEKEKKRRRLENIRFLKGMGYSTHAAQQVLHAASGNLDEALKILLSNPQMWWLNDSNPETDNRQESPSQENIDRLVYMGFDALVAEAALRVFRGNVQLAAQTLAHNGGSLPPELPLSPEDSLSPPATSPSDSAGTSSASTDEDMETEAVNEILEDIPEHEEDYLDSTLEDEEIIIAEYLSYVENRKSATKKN

response (GST-RAD23, P54727): 0.25 nm | response (GST-NUB1L, Q9Y5A7-1): 0.28 nm
B1: His6-RPN1 WT, Q13200 T2 (protein)
chain: MEEGGRDKAPVQPQQSPAAAPGGTDEKPSGKERRDAGDKDKEQELSEEDKQLQDELEMLVERLGEKDTSLYRPALEELRRQIRSSTTSMTSVPKPLKFLRPHYGKLKEIYENMAPGENKRFAADIISVLAMTMSGERECLKYRLVGSQEELASWGHEYVRHLAGEVAKEWQELDDAEKVQREPLLTLVKEIVPYNMAHNAEHEACDLLMEIEQVDMLEKDIDENAYAKVCLYLTSCVNYVPEPENSALLRCALGVFRKFSRFPEALRLALMLNDMELVEDIFTSCKDVVVQKQMAFMLGRHGVFLELSEDVEEYEDLTEIMSNVQLNSNFLALARELDIMEPKVPDDIYKTHLENNRFGGSGSQVDSARMNLASSFVNGFVNAAFGQDKLLTDDGNKWLYKNKDHGMLSAAASLGMILLWDAKGGLAAIDKYLYSSEDYIKSGALLACGIVNSGVRNECDPALALLSDYVLHNSNTMRLGSIFGLGLAYAGSNREDVLTLLLPVMGDSKSSMEVAGVTALACGMIAVGSCNGDVTSTILQTIMEKSETELKDTYARWLPLGLGLNHLGKGEAIEAILAALEVVSEPFRSFANTLVDVCAYAGSGNVLKVQQLLHICSEHFDSKEKEEDKDKKEKKDKDKKEAPADMGAHQGVAVLGIALIAMGEEIGAEMALRTFGHLLRYGEPTLRRAVPLALALISVSNPRLNILDTLSKFSHDADPEVSYNSIFAMGMVGSGTNNARLAAMLRQLAQYHAKDPNNLFMVRLAQGLTHLGKGTLTLCPYHSDRQLMSQVAVAGLLTVLVSFLDVRNIILGKSHYVLYGLVAAMQPRMLVTFDEELRPLPVSVRVGQAVDVVGQAGKPKTITGFQTHTTPVLLAHGERAELATEEFLPVTPILEGFVILRKNPNYDL

response (GST-NUB1L, Q9Y5A7-1): 0.18 nm
B2: His6-RPN1 WT, Q13200 T1; T2 (protein)
chain: B1 chain with D533A, Q540R, E544R
